Test results published in US20230374148A1, “BINDING MOLECULES THAT MULTIMERISE CD45” (UCB BIOPHARMA SRL, priority 2020, published 2023).

Assays:
[1] = system: M1 macrophages; experiment: Caspase-3/7 induction, IncuCyte, M1; format: cell-based, human; settings: over 6 days, BYbe 250-2 nM, Camptothecin, Staurosporine 5 μM
Procedure: Human PBMC derived from blood leukocyte platelet-apheresis cones (NHSBT Oxford) were banked as frozen aliquots. Prior to an assay being performed, 2 vials of frozen cells, each containing 5×10^7 cells in 1 ml, were thawed in a 37° C. water bath and then added to 50 ml complete media (RPMI 1640+2 mM GlutaMAX+1% Pen/Strep, all previous supplied by Invitrogen, +10% Fetal Bovine Serum (FBS), Sigma Aldrich). Cells were spun (500 g, 5 min, at RT) and re-suspended in 30 ml complete media to wash and spun again. Cells were resuspended in 20 ml MACS buffer (PBS, pH 7.2, 0.5% bovine serum albumin (BSA), and 2 mM EDTA, Sigma Aldrich) and counted on a ChemoMetec NucleoCounter NC-3000 to determine concentration and viability. PBMCs from one donor (UCB-Cones 802) was used in this assay. Monocyte isolation was performed using the Pan Monocyte Isolation Kit (Miltenyi Biotec, cat no. 130-096-537) and LS columns (Miltenyi Biotec, cat no 130-042-401) according to manufacturer's instructions. 100 μl of cells were removed and stored on ice to check monocyte purity post isolation. Isolated cells were stained with BV421 mouse anti-human CD14 (BD Biosciences, cat no. 563743) to check for purity of monocytes using FACS. M-CSF (Sigma Aldrich, cat no. SRP3110) and GM-CSF (R&D Systems, cat no. 215-GM/CF) were prepared at 100 μg/ml. Cells were prepared in M1 media (complete media+50 ng/ml GM-CSF) or M2 media (complete media+50 ng/ml M-CSF) at a concentration of 2.5×10^5 cells/ml. 200 μl cells were plated into two Corning 96 well Black polystyrene microplates (Sigma Aldrich) and incubated at 37° C., 5% CO2. Following a 3-day incubation at 37° C., 5% CO2, the plate was spun (500 g, 5 min, RT), buffer was aspirated, the cells were washed once with PBS and then resuspended in 200 μL of M1 media or M2 media. […] The caspase dye was measured with the green laser (350 ms) and the cytotox dye was measured with a red laser (650 ms). The green dye signal was analysed using Incucyte® Zoom2016B. […]

[2] = target: T1, CD45 ECD (Homo sapiens, UniProt P08575); experiment: Mass photometry of mixture of CD45 ECD and BYbe; format: binding; settings: for Theoretical mass (kDa): based on observed masses of 62 and 76 kDa
T1 construct: extracellular domain of CD45 (UniProtKB—P08575, residue positions 225-573); TEV cleavage site (C); 10-His tag (C); made in house; host or cells: HEK293
T1 sequence (P08575 225-573): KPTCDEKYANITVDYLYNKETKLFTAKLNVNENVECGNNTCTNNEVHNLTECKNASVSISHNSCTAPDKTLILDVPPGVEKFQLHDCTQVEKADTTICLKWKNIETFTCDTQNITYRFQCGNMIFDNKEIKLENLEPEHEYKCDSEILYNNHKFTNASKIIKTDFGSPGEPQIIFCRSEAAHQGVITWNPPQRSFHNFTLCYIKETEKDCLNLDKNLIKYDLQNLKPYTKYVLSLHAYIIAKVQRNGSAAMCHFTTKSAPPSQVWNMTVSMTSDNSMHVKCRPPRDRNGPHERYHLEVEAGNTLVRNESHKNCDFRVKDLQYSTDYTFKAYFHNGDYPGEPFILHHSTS
Procedure: Data were acquired on a RefeynOneMP mass photometer (Refeyn Ltd, Oxford, UK) using AcquireMP (Refeyn Ltd, v2.2.1) software and images were processed and analysed using DiscoverMP (v2.3.dev12) software.
Measurements were performed using clean glass coverslips (High Precision coverslips, No. 1.5, 24×50 mm, Marienfeld) mounted with silicon gaskets (CultureWell™ Reusable Gaskets, Grace biolabs) cut in to 2×2 well sections. Protein stocks were diluted directly in Dulbecco's Phosphate-Buffered Saline (DPBS, ThermoFisher). Typical working concentrations of protein complexes were 1-100 nM, depending on the dissociation characteristics of the protein complexes.
The instrument lens was cleaned with Iso-propyl alcohol (IPA), allowed to dry and a drop of Olympus Low Auto Fluorescence Immersion Oil (NC0297589, ThermoFisher) placed on the lens prior to positioning the microscope coverslip with sample in the light stage. To find focus, 15 μl of fresh DPBS was pipetted into a silicone well, the focal position was identified and secured in place with an autofocus system based on total internal reflection for the entire measurement. For each acquisition, 5 μl of diluted protein was introduced into the well, mixed thoroughly (before autofocus stabilization), and movies of 90 s duration recorded. Each sample was measured once, with a new well and buffer used for each measurement. The mixture of CD45 ECD and 4133-6294 BYbe was not pre-incubated and therefore complexing occurred when the 2 proteins were added into the well.

- Observed mass (kDa) ([2]; 1× (CD45 + BYbe) complex in mixture of CD45 ECD and 4133-6294 BYbe): 136 kDa
- Theoretical mass (kDa) ([2]; 1× (CD45 + BYbe)): 138 kDa
- Observed mass (kDa) ([2]; 2× (CD45 + BYbe) complex in mixture of CD45 ECD and 4133-6294 BYbe): 274 kDa
- Theoretical mass (kDa) ([2]; 2× (CD45 + BYbe)): 276 kDa
- Observed mass (kDa) ([2]; 3× (CD45 + BYbe) complex in mixture of CD45 ECD and 4133-6294 BYbe): 415 kDa
- Theoretical mass (kDa) ([2]; 3× (CD45 + BYbe)): 414 kDa
- Observed mass (kDa) ([2]; 4× (CD45 + BYbe) complex in mixture of CD45 ECD and 4133-6294 BYbe): 555 kDa
- Theoretical mass (kDa) ([2]; 4× (CD45 + BYbe)): 552 kDa
B1: 4133-6294 BYbe: anti-CD45 BYbe (Fab-scFv): 4133 Fab HC-G4S linker-6294 scFv heavy chain paired with 4133 light chain (antibody)
heavy: QEQLVESGGGLVQPEGSLTLTCTASGFSFSGNYYMCWVRQAPGKGLEWIGCLYTGSSGSTYYASWAKGRFTISKTSSTTVTLQMTSLTAADTATYFCARDLGYEIDGYGGLWGQGTLVTVSSGQPKAPSVFPLAPCCGDTPSSTVTLGCLVKGYLPEPVTVTWNSGTLTNGVRTFPSVRQSSGLYSLSSVVSVTSSSQPVTCNVAHPATNTKVDKTVAPSTCSKPGGGGSGGGGSEVQLVESGAELARPGASVKMSCKASGYTFTSYTMHWVKQRPGQCLEWIGYINPSSGYTEYNQKFKDKTTLTADKSSSTAYLQLSSLTSEDSAVYYCARVGDGFYPSWLAYWGQGTLVTVSSGGGGSGGGGSGGGGSGGGGSDIQMTQSPKFLLVSAGDRVTITCKASQSVRNDVAWYQQKPGQSPKLLIFYASKRYTGVPDRFTGSGYGTDFTFTISTVQAEDLAVYFCQQDYSSPTTFGCGTKLEIK
light: AQVLTQTPSPVSAVVGGTVSISCQASQSVYNNNNLSWYQQKPGQPPKLLIYDASKLASGVPSRFKGSGSGTQFTLTISGVQCDDAATYYCLGGYYSSGWYFAFGGGTKVVVKRTPVAPTVLIFPPAADQVATGTVTIVCVANKYFPDVTVTWEVDGTTQTTGIENSKTPQNSADCTYNLSSTLTLTSTQYNSHKEYTCKVTQGTTSVVQSFNRGDC
- levels of Caspase-3/7 [1]: in-line with NegCtrl BYbe-treated and untreated macrophages
